The values below come from patent US20240190987A1, “Engineered EpCam Binding Antibodies” (TigaTX, priority 2021, published 2024).

The nature of data set [1]: UPLC-SEC retention time. Format: physicochemical. The note with it: Table 13. The procedure: LS2B antibody clones derived from the phage display campaign were profiled by analytical UPLC-SEC using a Thermo Vanquish Flex HPLC with a MabPAC 4.6×150 mm SEC column equilibrated in 1×PBS-HCl at pH 7.0. Retention time of each clone was compared to Ab0254 to assess overall developability.
UPLC-SEC was performed on a Thermo Scientific Vanquish Flex UHPLC system. Protein was diluted to 1-5 μM in HBS buffer and then 1.5-10 μL of sample was injected onto a MabPAC 4.6×150 mm in 1×PBS-HCl at pH 7.0. Data were continuously acquired at ˜280 nm and processed on the Chromeleon 7 software (Thermo Scientific). For the low pH hold assay, prior to injection on the UHPLC, samples were held at pH 3.5 for 1 hour followed by neutralization. For the complex assembly assay, the MabPAC 4.6×150 mm column was pre-equilibrated with 1×PBS-HCl at pH 7.0 and 10 μM Indinavir.

A short description of data set [2]: Differential scanning fluorimetry (DSF) melting temperature. In kind it is physicochemical. In a few lines:
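Purified recombinant protein (5 μM) in PBS pH 7.4 with Sypro Orange 5×, plus 10 μM VTX or 0.05% DMSO vehicle, ramped 25–95 °C at 0.01 °C/s. Fluorescence read at ~465/~580 nm; Tm taken as the maximum of the first-derivative curve.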

Data set [3] can be described thus: Ab0640 pharmacokinetics in mice. The following applies: 6.7 mg/kg single IV, C57BL/6 mice. In kind it is in vivo. The procedure:
Plasma samples were collected at 30 min, 24 hr, 72 hr, and 168 hr and concentrations of the antibodies were determined by ELISA.
Female […] mice (age 10-12 weeks) were distributed into 2 groups (n=5 per group). Antibodies were diluted in sterile PBS and injected intravenously at 6.7 mg/kg. Blood (55 μL from the retroorbital sinus) was sampled serially at 4 time points (30 min, 1 day, 3 days, 7 days), processed to plasma, diluted 1:10 in 50% glycerol+PBS, then cryopreserved. Plasma concentrations were quantified using an anti-human IgG sandwich ELISA that was developed and qualified in-house. The capture antibody for the ELISA was goat anti-human IgG (Cat. No. 2049-01; Southern Biotech, Birmingham, AL) coated on 96-well Nunc-Immuno Maxisorp plates (Thermo Fisher Scientific) at […] for 1 hr at 37° C. The detection antibody was mouse anti-human IgG Fc-HRP (Cat. No. 9042-05; Southern Biotech, Birmingham, AL) at 1:32,000 dilution of the manufacturer stock. ELISA coating, blocking, wash, and TMB substrate buffers from BioLegend were used according to the manufacturer's instructions. Non-compartmental pharmacokinetic parameters were calculated using the PKNCA package for R (doi: 10.1007/s10928-015-9432-2).

Data set [4] concerns cynomolgus macaque PBMCs. The experiment in a line: Surface staining of cyno PBMCs by flow cytometry. Format: cell-based. The following applies: TCRab+, CD4+ and CD8+ subsets. Here is the method: (§1) FIG. 32 depicts Ab1070 binding to human and cynomolgus macaque PBMCs. Binding was measured by flow cytometry using a secondary fluorescent antibody (IgG-PE). T-cell subsets were identified using additional fluorescent antibodies against TCRab, CD4 and CD8 and gated prior to quantifying the median fluorescence intensity (MFI) of the IgG-PE channel. […] The assay was performed with up to 10 μM antibodies (titrated as indicated).
(§2) Peripheral blood mononuclear cells (PBMCs) from healthy cynomolgus macaques (Chinese origin) were obtained commercially (iQ Biosciences, Berkeley, CA). Peripheral blood mononuclear cells (PBMCs) from healthy human donors were isolated from leukapheresis packs (leukopaks) from deidentified healthy adult donors (StemCell Technologies, Vancouver, BC). Human PBMCs were isolated using the EasySep Direct Human PBMC Kit (StemCell Technologies) then cryopreserved in DMEM with 10% FBS and 10% DMSO. Frozen PBMC cryovials were thawed on the day of experiments and washed complete growth media (DMEM+10% FBS+1% penicillin/streptomycin). Cells were resuspended in growth media and transferred to a 96-well U-bottom plate at 55,000 cell/well. Human TruStain FcX (Fc Receptor Blocking Solution; Catalog number 422302; BioLegend, San Diego, CA) was added at a 1:20 final dilution of the manufacturer's stock and incubated for 10 minutes at room temperature in a volume of 25 μL. […]
(In general: A flow cytometer gives signals particle by particle.)

Data set [5] concerns human PBMCs. Put plainly: Surface staining of human PBMCs by flow cytometry. In kind it is cell-based. The note with it: TCRab+, CD4+ and CD8+ subsets. Here is the method: as §1, §2
For data set [6], the system named is HCT-116-NR target cells. The experiment in a line: Real-time TDCC by time-lapse microscopy. Format: cell-based, human. The following applies: 10 nM antibodies, 250 nM indinavir, 5 μM quencher, 120 hours. The procedure:
FIG. 42 depicts real-time measurement of TDCC in a co-culture assay for three exemplary T-LITE pairs. […] T-LITE antibodies were held constant at 10 nM with indinavir (250 nM) added to some wells, as indicated (“ON”). In some wells, a conventional TCE (Ab1007) was included as a positive control. In some wells, an anti-indinavir quencher antibody (5 μM) was added at various time points, as indicated (“OFF”). […] In some wells, no indinavir was added (“Always OFF”). Killing was interrupted by the addition of the quencher at earlier time points (“OFF at” 30 min, 24 h, 44 h, or 49 h). Killing occurred at levels similar to the no-quencher condition (“Always ON”) if the quencher was added at the latest time point (68 h). The assay was performed with human T-cells and HCT-116-NR target cells for 120 hours.
The kinetics of TDCC in a co-culture assay were measured using time-lapse microscopy (FIG. 42). […] To test how T-LITE-activated T-cells respond to the removal of indinavir, an “anti-indinavir quencher” was used. […]
Co-cultures of magnetically isolated human T-cells and target cells were prepared as described above for TDCC assays, with some modifications. […] The IncuCyte software was used to quantify Normalized target cell abundance (red object area per image, normalized to T=0 h).

Usually half-life stands for the time in which the quantity being followed falls by half. Lower therefore signals rapid decline.

B1: Ab0637: LS2B; HC: V29F+M100eL+M100hL on Ab0596; parent of R4b (antibody, V domains shown)
VH: EVQLVESGGGLVQPGGSLRLSCAASGFDFSSYSIHWVRQAPGKGLEWVASISPYYGSTYYADSVKGRFTISADTSKNTAYLQMNSLRAEDTAVYYCARYYEWYKYSLYLGSLGFDYWGQGTLVTVSS
VL: DIQMTQSPSSLSASVGDRVTITCRASQSVSSAVAWYQQKPGKAPKLLIYSASSLYSGVPSRFSGSRSGTDFTLTISSLQPEDFATYYCQQGGYSLITFGQGTKVEIK
With B1, the “SEC RT” value in data set [1] is 17.205 min. Also, in data set [2] (Table 13), the “TM (° C.)” value was 78.3 °C.

B2: hSP34v68: humanized SP34 anti-CD3 clone v68, scFv-Fc (antibody)
heavy: EVQLVESGGGLVQPGGSLRLSCAASGFTFNTYAMNWVRQAPGKGLEWVARIRSKYNNYATYYADSVKGRFTISRDDSKSILYLQMNSLRAEDTAVYYCVRHGNFGNSYVSWFAYWGQGTLVTVSSGGGGSGGGGSGGGGSDIQVTQSPSSLSASVGDRVTITCRSSTGAVTTSNYANWVQQKPGKAFKGLIGGTNKLASGVPSRFSGSLSGDDATLTISSLQPEDFATYYCALWYSNLWVFGQGTKLEIKGGGGSDKTHTCPPCPAPEAAGGPSVFLFPPKPKDTLMISRTPEVTCVVVDVSHEDPEVKFNWYVDGVEVHNAKTKPREEQYNSTYRVVSVLTVLHQDWLNGKEYKCKVSNKALGAPIEKTISKAKGQPREPQVYTLPPSRDELTKNQVSLTCLVKGFYPSDIAVEWESNGQPENNYKTTPPVLDSDGSFFLYSKLTVDKSRWQQGNVFSCSVMHEALHNHYTQKSLSLSPGK
modifications: REGION 1..482: note = Ab0640 HC
notes: humanized SP34 anti-CD3 clone v68, scFv-Fc
Consider B2, for which the half-life in data set [3] came out at 112 h. Further, the “binding to cyno PBMC T-cell subsets” value in data set [4] is “Detectable and saturable binding”. Also, the “TM (° C.)” value in data set [2] (DSF, hSP34v68 R1 variants (Table 23)) turned out to be 60.7 °C. In addition, the “binding to human PBMC T-cell subsets” value in data set [5] is “Detectable and saturable binding”.

B3: Ab1007: conventional TCE positive control (antibody)
heavy 1: EVQLVQSGPGLVQPGGSVRISCAASGYTFTNYGMNWVKQAPGKGLEWMGWINTYTGESTYADSFKGRFTFSLDTSASAAYLQINSLRAEDTAVYYCARFAIKGDYWGQGTLLTVSSASTKGPSVFPLAPSSKSTSGGTAALGCLVKDYFPEPVTVSWNSGALTSGVHTFPAVLQSSGLYSLSSVVTVPSSSLGTQTYICNVNHKPSNTKVDKKVEPKSCDKTHTCPPCPAPEAAGGPSVFLFPPKPKDTLMISRTPEVTCVVVDVSHEDPEVKFNWYVDGVEVHNAKTKPREEQYNSTYRVVSVLTVLHQDWLNGKEYKCKVSNKALGAPIEKTISKAKGQPREPMVFDLPPSREEMTKNQVSLWCMVKGFYPSDIAVEWESNGQPENNYKTTPPVLDSDGSFFLYSKLTVDKSRWQQGNVFSCSVMHEALHNHYTQKSLSLSPGKHHHHHH
heavy 2: EVQLVESGGGLVQPGGSLRLSCAASGFTFNTYAMNWVRQAPGKGLEWVARIRSKYNNYATYYADSVKGRFTISRDDSKSILYLQMNSLRAEDTAVYYCVRHGNFGNSYVSWFAYWGQGTLVTVSSGGGGSGGGGSGGGGSDIQVTQSPSSLSASVGDRVTITCRSSTGAVTTSNYANWVQQKPGKAFKGLIGGTNKLAPGVPSRFSGSLSGDDATLTISSLQPEDFATYYCALWYSNLWVFGQGTKLEIKGGGGSDKTHTCPPCPAPEAAGGPSVFLFPPKPKDTLMISRTPEVTCVVVDVSHEDPEVKFNWYVDGVEVHNAKTKPREEQYNSTYRVVSVLTVLHQDWLNGKEYKCKVSNKALGAPIEKTISKAKGQPREPQVYTLPPIRELMTSNQVSLSCAVKGFYPSDIAVEWESNGQPENNYKTTPPVLDSDGSFFLVSKLTVDKSRWQQGNVFSCSVMHEALHNHYTQKSLSLSPGK
light: DIQMTQSPSSLSASVGDRVTITCRSTKSLLHSNGITYLYWYQQKPGKAPKLLIYQMSNLASGVPSRFSSSGSGTDFTLTISSLQPEDFATYYCAQNLEIPRTFGQGTKVELKRTVAAPSVFIFPPSDEQLKSGTASVVCLLNNFYPREAKVQWKVDNALQSGNSQESVTEQDSKDSTYSLSSTLTLSKADYEKHKVYACEVTHQGLSSPVTKSFNRGEC
modifications: REGION 1..452: note = Ab1007 Knob HC; REGION 1..482: note = Ab1007 Hole HC; REGION 1..219: note = Ab1007 Knob LC
notes: conventional TCE positive control
On to B3, for which the “real-time TDCC of HCT-116-NR target cells” value in data set [6] is given as “depleted of target cells”.
